7 substances from patent publication US20050089970A1 can be followed below.

This assay concerns the target CCR5 (UniProt P51681). Nature of the assay: cell-based or functional assay.
Sequence of UniProt P51681 (P51681 whole entry): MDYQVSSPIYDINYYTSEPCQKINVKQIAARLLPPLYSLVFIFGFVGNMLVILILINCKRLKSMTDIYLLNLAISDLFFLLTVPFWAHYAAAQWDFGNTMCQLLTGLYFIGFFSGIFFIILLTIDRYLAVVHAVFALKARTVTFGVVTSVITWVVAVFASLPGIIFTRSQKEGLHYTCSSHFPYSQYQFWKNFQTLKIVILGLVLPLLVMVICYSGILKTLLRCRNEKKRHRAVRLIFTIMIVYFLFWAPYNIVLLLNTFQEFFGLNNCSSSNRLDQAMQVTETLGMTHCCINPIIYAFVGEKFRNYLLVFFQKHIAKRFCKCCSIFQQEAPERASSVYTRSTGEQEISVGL

“aminooxypentane-RANTES (2-68), CH3-(CH2)4-O-N=CH-CO-RANTES (2-68) (from UniProt P13501 25-91) (ligand)” returned an Average infectivity IC50 (cell-free viral infection assay) of 0.145 nM; a Cell-fusion result for comparison (IC50) of 0.48 nM; an EC50, HeLa P4-CCR5/HeLa-Env-ADA cell fusion of 1.81 nM; a Mean Relative Potency (IC50 of cell fusion inhibition relative to AOP-RANTES = 100) (relative to AOP-RANTES = 100) of 100.

“n-nonanoyl-RANTES (2-68), CH3-(CH2)7-C(O)-RANTES (2-68) (from UniProt P13501 25-91) (ligand)” returned an Average infectivity IC50 (cell-free viral infection assay) of 0.024 nM; a Cell-fusion result for comparison (IC50) of 0.097 nM; an EC50, HeLa P4-CCR5/HeLa-Env-ADA cell fusion of 0.323 nM.

The substance “NNY-P2Thz-Y3Chg-RANTES (4-68) (from UniProt P13501 25-91) (ligand)” displayed a Mean Relative Potency (IC50 of cell fusion inhibition relative to AOP-RANTES = 100) (relative to AOP-RANTES = 100) of 2 and a percentage fusion inhibition at the lowest dilution of over 50%.

“NNY-P2Thz-Y3tButA-RANTES (4-68) (from UniProt P13501 25-91) (ligand)” came in with a Mean Relative Potency (IC50 of cell fusion inhibition relative to AOP-RANTES = 100) (relative to AOP-RANTES = 100) of 4 and a percentage fusion inhibition at the lowest dilution of over 50%.

For “AOP-RANTES-K(palmitoyl)-G (from UniProt P13501 25-91) (ligand)”, the Mean Relative Potency (IC50 of cell fusion inhibition relative to AOP-RANTES = 100) (relative to AOP-RANTES = 100) was 45.

On to “NNY-P-Y3tbuA-RANTES (4-68) (from UniProt P13501 25-91) (ligand)”, for which the Average infectivity IC50 (cell-free viral infection assay) came out at 0.014 nM, the Cell-fusion result for comparison (IC50) was 0.038 nM, the Mean Relative Potency (IC50 of cell fusion inhibition relative to AOP-RANTES = 100) (relative to AOP-RANTES = 100) turned out to be 7 and the percentage fusion inhibition at the lowest dilution is over 50%.

In turn, “NNY-P-Y3Chg-RANTES (4-68) (from UniProt P13501 25-91) (ligand)” came in with an Average infectivity IC50 (cell-free viral infection assay) of 0.012 nM, a Cell-fusion result for comparison (IC50) of 0.026 nM, a Mean Relative Potency (IC50 of cell fusion inhibition relative to AOP-RANTES = 100) (relative to AOP-RANTES = 100) of 7 and a percentage fusion inhibition at the lowest dilution of over 50%.
